Data taken from article PMC7145567.

Target: HMGA1a, non-phosphorylated (wt) (UniProt P17096 1-107)
Assay: ITC

Chain of HMGA1a, non-phosphorylated (wt) (P17096 whole entry): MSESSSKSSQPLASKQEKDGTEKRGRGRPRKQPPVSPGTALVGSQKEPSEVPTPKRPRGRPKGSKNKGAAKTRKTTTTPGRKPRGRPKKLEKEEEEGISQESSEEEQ

B1: PRD2 element of NFkB promoter (dsDNA)
DNA 1: GGGAAATTCCTC
DNA 2: GAGGAATTTCCC
Kd: ~100 nM
